Test results from patent publication US11912777 (NANJING LEADS BIOLABS, dated 2024).

How the values were obtained:
[1] = target: T1, extracellular region of mouse TNFR2 (mouse, UniProt P25119 23-258); assay: ELISA, TNFR2 protein coated at 0.5 µg/mL
T1 construct: The entry includes a signal peptide marked only by underlining (not visible here)
T1 sequence: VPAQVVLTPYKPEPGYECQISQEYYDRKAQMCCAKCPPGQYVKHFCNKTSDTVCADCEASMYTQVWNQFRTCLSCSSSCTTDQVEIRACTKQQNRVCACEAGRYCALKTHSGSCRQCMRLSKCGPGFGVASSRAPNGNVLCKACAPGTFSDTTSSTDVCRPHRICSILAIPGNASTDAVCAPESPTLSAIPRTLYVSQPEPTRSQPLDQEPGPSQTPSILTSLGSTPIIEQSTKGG

[2] = target: T2, mouse TNFR2 variant 019-0-0.5 (human segment 1L-31C) (mouse with a human segment); assay: ELISA on coated variant 019-0-0.5, epitope mapping; upper panel
T2 construct: Mouse TNFR2 extracellular domain with the human segment, followed by a human Fc

[3] = target: T3, human TNFR2, mouse Fc-tag (human); assay: blocking ELISA: hTNFR2-mFc mixed with antibody, binding to coated TNF-alpha his tag; right panel; unit from the axis [b]
T3 construct: also called hTNFR2-mFc; huTNFR2-mFc
T3 chain: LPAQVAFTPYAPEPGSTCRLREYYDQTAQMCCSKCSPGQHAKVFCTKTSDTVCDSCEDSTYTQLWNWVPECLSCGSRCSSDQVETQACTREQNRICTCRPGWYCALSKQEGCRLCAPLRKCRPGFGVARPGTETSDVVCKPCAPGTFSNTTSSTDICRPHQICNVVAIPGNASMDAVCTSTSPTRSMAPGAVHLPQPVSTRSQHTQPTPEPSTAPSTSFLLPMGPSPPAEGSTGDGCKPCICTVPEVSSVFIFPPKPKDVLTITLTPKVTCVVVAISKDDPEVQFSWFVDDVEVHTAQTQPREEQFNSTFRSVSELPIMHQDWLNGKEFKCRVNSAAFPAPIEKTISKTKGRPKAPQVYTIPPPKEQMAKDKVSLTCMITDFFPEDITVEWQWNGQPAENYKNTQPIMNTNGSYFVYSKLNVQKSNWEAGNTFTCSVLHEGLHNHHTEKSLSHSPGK

B1: humanized antibody hu3-E (Hu3-H3/Hu3-L1) (antibody, human IgG1, kappa, V domains shown)
VH: QIQLVQSGAEVKKPGASVKVSCKASGYTFTTYGMSWVRQAPGQGLEWMGWIHTYSGVPTYADDFKGRFAFTLDTSTSTAYMELRSLRSDDTAVYYCARGLYGVDYWGQGTLVTVSS
VL: EIVMTQSPATLSLSPGERATLSCKASENVVTYVSWYQQKPGQAPRLLIYGASNRYTGIPARFSGSGSATDFTLTISSLQPEDFAVYYCGQSYTYPYTFGQGTKLEIKR
notes: Humanized form of 43B7A4, human IgG1/kappa
B1 was tested, and the binding result [1] was “no binding (tested: starting concentration 0.4 µg/mL)”, the “EC50 (read off the curve)” value [2] was about 6 ng/mL and the IC50 [3] was 0.282 nM.
